For assay [1], the target named is T1, potato lectin (Sigma) (potato, UniProt Q9S8M0 23-323).
T1 construct: Bought glycoprotein, coated on ELISA plates
T1 sequence (looked up): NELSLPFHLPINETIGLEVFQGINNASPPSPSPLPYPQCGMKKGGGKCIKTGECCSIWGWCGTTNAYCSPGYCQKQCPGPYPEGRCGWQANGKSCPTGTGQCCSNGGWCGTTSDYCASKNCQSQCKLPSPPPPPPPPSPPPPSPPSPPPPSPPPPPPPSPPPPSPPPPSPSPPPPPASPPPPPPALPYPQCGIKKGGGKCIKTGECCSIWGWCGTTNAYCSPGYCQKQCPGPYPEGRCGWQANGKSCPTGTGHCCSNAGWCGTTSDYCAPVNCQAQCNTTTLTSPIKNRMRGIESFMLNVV
Kind of assay: microcapsule retention; G: amine capsules, BS3 one-step, 1 ug VHH/cm2; potato lectin coat 10 ug/ml; 10% coverage.

The target of assay [2] is T1, potato lectin (Sigma). Briefly: microcapsule retention; K: amine capsules, BS3 two-step, 1 ug VHH/cm2; potato lectin coat 10 ug/ml; 10% coverage.
Assay [3] addresses T1, potato lectin (Sigma). Briefly: microcapsule retention; K: amine capsules, BS3 two-step, 1 ug VHH/cm2; potato lectin coat 100 ug/ml; 10% coverage.
The target in assay [4] is T1, potato lectin (Sigma). Briefly: microcapsule retention; L: amine capsules, BS3 two-step, 0.1 ug VHH/cm2; potato lectin coat 1 ug/ml; 10% coverage.
Assay [5] deals with T1, potato lectin (Sigma). Briefly: microcapsule retention; K: amine capsules, BS3 two-step, 1 ug VHH/cm2; potato lectin coat 100 ug/ml; 100% coverage.
Assay [6] concerns the target T1, potato lectin (Sigma). Kind of assay: microcapsule retention; L: amine capsules, BS3 two-step, 0.1 ug VHH/cm2; potato lectin coat 100 ug/ml; 10% coverage.
Assay [7] addresses T1, potato lectin (Sigma). Kind of assay: microcapsule retention; C: carboxyl capsules, EDC/Sulfo-NHS, 1 ug VHH/cm2; potato lectin coat 10 ug/ml; 100% coverage.
For assay [8], the target named is T1, potato lectin (Sigma). Briefly: microcapsule retention; C: carboxyl capsules, EDC/Sulfo-NHS, 1 ug VHH/cm2; potato lectin coat 100 ug/ml; 10% coverage.
The target in assay [9] is T1, potato lectin (Sigma). Briefly: microcapsule retention; C: carboxyl capsules, EDC/Sulfo-NHS, 1 ug VHH/cm2; potato lectin coat 100 ug/ml; 100% coverage.
Assay [10] concerns the target T1, potato lectin (Sigma). Kind of assay: microcapsule retention; D: carboxyl capsules, EDC/Sulfo-NHS, 0.1 ug VHH/cm2; potato lectin coat 1 ug/ml; 100% coverage.
The test system of a further assay is gum arabic. Kind of assay: VHH binding to gum arabic in ELISA. Also on record: species or system acacia tree. The method, then: Titration of VHH antibody fragments was performed on ELISA plates (Maxisorp, Nunc) coated with 100 μl per well 100 μg/ml gum arabic in 50 mM carbonate pH9.6. Plates were coated at 4° C. overnight and coating was continued at room temperature for 1 hour on the next day. Plates were washed three times with PBS/0.05%-TWEEN®-20 and blocked with 5% skimmed milk in PBS for 1 hour. Four-fold serial dilutions of purified VHH antibody fragments were prepared in 1% MPBS/0.05%-TWEEN®-20 in polypropylene 96-well plates. Antibody concentrations ranged from 3 μg/ml to 12 ng/ml. Antibody dilutions were transferred to the gum arabic-coated plates and VHH antibody fragments were allowed to bind for 1 hour at room temperature. Bound VHH were detected with sequential incubations with monoclonal mouse anti-histidine antibodies (Abd Serotec) and rabbit anti-mouse IgG whole molecule antibodies conjugated with alkaline phosphatase (RaM/AP) (Sigma) in 1% MPBS/0.05%-TWEEN®-20. Unbound antibodies were removed by washing three times with PBS/0.05%-TWEEN®-20 after each antibody incubation. The plates were washed an additional two times with PBS and 100 μl pNPP disodium hexahydrate substrate (Sigma) was added to each well. The absorbance at 405 nm was measured and plotted as function of antibody concentration (see Table 1).
For orientation: ELISA stands for enzyme-linked immunosorbent assay.

Assay [11] relates to gum arabic or potato lectin. Briefly: Lambda cyhalothrin amounts in wells with bound microcapsules (GC/MS-MS). It is filed as binding. The conditions noted are these: VHH coupled to lambda cyhalothrin microcapsules. The method, then: In another experiment lambda cyhalothrin amounts were also determined analytically. 100 μl/well aceton was added to washed wells with bound microcapsules and transferred to glass vials with 10 ml of hexane containing 0.05% triphenylphosphate as internal standard. The amount of lambda cyhalothrin was determined by GC/MS-MS analysis in comparison with calibration solutions. Controls for lambda cyhalothrin microcapsules included blank microcapsules to which no VHH were coupled and microcapsules to which unrelated VHH were coupled. Controls also included wells to which no gum arabic or potato lectin was coated.

The test system of the next assay is potato leaf discs. Kind of assay: Leaf disc binding assay with VHH-coupled Uvitex microcapsules. The arrangement: species or system potato (variety Désirée). The protocol:
A leaf disc binding assay was used to evaluate the interaction of VHH-coupled microcapsules with potato, grass and azalea leaves. ø 8 mm leaf discs were sampled from the leaves of potato pot plants (variety Désirée), from the leaves of greenhouse-grown Lollium perenne and from the leaves of azalea pot plants. Leaf discs were washed three times with PBS. Microcapsules containing lambda cyhalothrin or Uvitex were diluted to appropriate densities in 1% skimmed milk in PBS with 0.05%-TWEEN®-20. Microcapsules were added to the leaf discs and settling of microcapsules and binding of targeting agents allowed for 1 hour. Unbound microcapsules were removed by washing three to five times with PBS with 0.05%-TWEEN®-20.
Leaf discs with Uvitex microcapsules were analyzed for bound microcapsules on a macrozoom microscope system (Nikon). Microcapsules were counted using Volocity image analysis software (Perkin Elmer). A DAPI filter was used to visualize Uvitex microcapsules. […]
A titration experiment was performed to investigate what dilution factor of microcapsules with specific VHH corresponds to an application of microcapsules to which no VHH were coupled to obtain similar amounts of microcapsules after an identical treatment. Two-fold serial dilutions of microcapsules were prepared and leaf disc binding was analyzed on potato leaf discs for these dilution series. […]

A further assay concerns the target unrelated antigens. Briefly: VHH-coupled lambda-cyhalothrin microcapsules retained on wells coated with unrelated antigen; 20% surface coverage.

With Control VHH, the microcapsule counts (microcapsules) is 13 with potato lectin (Sigma) [1]; 197 with potato lectin (Sigma) [2]; 285 in the assay with potato lectin (Sigma) [3]; 116 with potato lectin (Sigma) [4]; 866 with potato lectin (Sigma) [5]; 248 with potato lectin (Sigma) [6]. The microcapsule counts (microcapsules) with potato lectin (Sigma) [7] is 265; in the assay with potato lectin (Sigma) [8], 55; in the assay with potato lectin (Sigma) [9], 297; in the assay with potato lectin (Sigma) [10], 227.

B1: VHH 3E6 (VHH)
VHH: QVQLQESGGGLVQPGGTLSLSCAASGFNVRWYGMGWFRQAPGKEREGVACISALQETTAYADSVKGRFTLSRDNPKNTLSLQMNNLQPEDTGVYYCATTDCDDSSRMTYTSYLGQGTQVTVSS
notes: also called Monovalent VHH 3E6
For B1, the “absorbance at 405 nm” value came to 0.882 in the assay on gum arabic (Table 2, gum arabic coat, VHH 3 μg/ml); 0.392 with gum arabic ([VHH] 0.0117188 μg/ml (0.78125 nM), gum arabic 100 μg/ml); 0.905 in the assay on gum arabic ([VHH] 0.04688 μg/ml (3.125 nM), gum arabic 100 μg/ml); 1.518 in the assay on gum arabic ([VHH] 0.1875 μg/ml (12.5 nM), gum arabic 100 μg/ml); 1.904 with gum arabic ([VHH] 0.75 μg/ml (50 nM), gum arabic 100 μg/ml); 2.154 with gum arabic ([VHH] 3 μg/ml (200 nM), gum arabic 100 μg/ml). Further, the “absorbance at 405 nm” value in the assay on gum arabic ([VHH] 3 μg/ml (200 nM), no gum arabic coat (−)) was 0.090. The “increase of amounts of lambda cyhalothrin in wells coated with antigen” value in assay [11] (compared to blank microcapsules) was 23 fold; in assay [11] (over blank wells not coated with antigen) it was 27 fold. The “binding and retaining of Uvitex microcapsules to leaf surfaces” value in the assay on potato leaf discs is “capable of binding and retaining microcapsules specifically to leaf surfaces”. In the assay with unrelated antigens, this molecule returned a counts of bound microcapsules (microcapsules) of 601.

Source of the values: US20130217572A1, “SPECIFIC DELIVERY OF AGROCHEMICALS” (VRIJE UNIVERSITEIT BRUSSEL, priority 2010, published 2013).
